Source: the supplement of paper PMC5998384

Columns and labels:
HeLa Kyoto [1] = assay: solubility in G1/S (NP-40 vs SDS abundance) (log2 ratio); higher = more soluble; conditions: cell cycle stage: G1/S
HeLa Kyoto [2] = assay: solubility change mitosis vs G1/S (difference of NP-40 vs SDS log2 ratios) (log2 ratio difference); higher = more soluble in mitosis
HeLa Kyoto [3] = assay: melting temperature (median over replicates), in situ; higher = more thermally stable
HeLa Kyoto [4] = assay: thermal stability score vs G1/S (z-score of summed log2 fold changes over temperatures); higher = more thermally stable than in G1/S
[5] = cell cycle stage: early G1 (4.5 h after nocodazole release)
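For melting temperature (median over replicates), in situ in this document: HeLa Kyoto cells synchronized by double thymidine or nocodazole block, proteins quantified by TMT10plex mass spectrometry, three independent biological replicates.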
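For solubility change mitosis vs G1/S (difference of NP-40 vs SDS log2 ratios) in this document: synchronized HeLa Kyoto cells (double thymidine block for G1/S, nocodazole release for mitosis), protein amounts in NP-40 versus SDS lysates quantified by mass spectrometry, three biological replicates.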
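For solubility in G1/S (NP-40 vs SDS abundance) in this document: HeLa Kyoto cells arrested at G1/S by double thymidine block, proteins quantified by TMT10plex mass spectrometry in mild NP-40 versus SDS extracts, three biological replicates.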
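For thermal stability score vs G1/S (z-score of summed log2 fold changes over temperatures) in this document: synchronized HeLa Kyoto cells, proteins quantified by TMT10plex mass spectrometry, three biological replicates, mitosis taken 0.5 h after nocodazole release, G1/S directly after double thymidine block.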

Sequence | solubility in G1/S (log2) (HeLa Kyoto [1]) | solubility change mitosis (log2) (HeLa Kyoto [2]) | melting temperature (HeLa Kyoto [3]; cell cycle stage: G1/S) [°C] | melting temperature (HeLa Kyoto [3]; cell cycle stage: mitosis) [°C] | thermal stability score (HeLa Kyoto [4]; [5]) | thermal stability score (HeLa Kyoto [4]; cell cycle stage: mitosis)
MEDLDQSPLVSSSDSPPRPQPAFKYQFVREPEDEEEEEEEEEEDEDEDLEELEVLERKPAAGLSAAPVPTAPAAGAPLMDFGNDFVPPAPRGPLPAAPPVAPERQPSWDPSPVSSTVPAPSPLSAAAVSPSKLPEDDEPPARPPPPPPASVSPQAEPVWTPPAPAPAAPPSTPAAPKRRGSSGSVDETLFALPAASEPVIRSSAENMDLKEQPGNTISAGQEDFPSVLLETAASLPSLSPLSAASFKEHEYLGNLSTVLPTEGTLQENVSEASKEVSEKAKTLLIDRDLTEFSELEYSEMGSSFSVSPKAESAVIVANPREEIIVKNKDEEEKLVSNNILHNQQELPTALTKLVKEDEVVSSEKAKDSFNEKRVAVEAPMREEYADFKPFERVWEVKDSKEDSDMLAAGGKIESNLESKVDKKCFADSLEQTNHEKDSESSNDDTSFPSTPEGIKDRSGAYITCAPFNPAATESIATNIFPLLGDPTSENKTDEKKIEEKKAQIVTEKNTSTKTSNPFLVAAQDSETDYVTTDNLTKVTEEVVANMPEGLTPDLVQEACESELNEVTGTKIAYETKMDLVQTSEVMQESLYPAAQLCPSFEESEATPSPVLPDIVMEAPLNSAVPSAGASVIQPSSSPLEASSVNYESIKHEPENPPPYEEAMSVSLKKVSGIKEEIKEPENINAALQETEAPYISIACDLIKETKLSAEPAPDFSDYSEMAKVEQPVPDHSELVEDSSPDSEPVDLFSDDSIPDVPQKQDETVMLVKESLTETSFESMIEYENKEKLSALPPEGGKPYLESFKLSLDNTKDTLLPDEVSTLSKKEKIPLQMEELSTAVYSNDDLFISKEAQIRETETFSDSSPIEIIDEFPTLISSKTDSFSKLAREYTDLEVSHKSEIANAPDGAGSLPCTELPHDLSLKNIQPKVEEKISFSDDFSKNGSATSKVLLLPPDVSALATQAEIESIVKPKVLVKEAEKKLPSDTEKEDRSPSAIFSAELSKTSVVDLLYWRDIKKTGVVFGASLFLLLSLTVFSIVSVTAYIALALLSVTISFRIYKGVIQAIQKSDEGHPFRAYLESEVAISEELVQKYSNSALGHVNCTIKELRRLFLVDDLVDSLKFAVLMWVFTYVGALFNGLTLLILALISLFSVPVIYERHQAQIDHYLGLANKNVKDAMAKIQAKIPGLKRKAE [RTN4] | -0.0792 | -0.155 | 56.6 | 56.7 | -0.746 | -1.43
MEDYLQGCRAALQESRPLHVVLGNEACDLDSTVSALALAFYLAKTTEAEEVFVPVLNIKRSELPLRGDIVFFLQKVHIPESILIFRDEIDLHALYQAGQLTLILVDHHILSKSDTALEEAVAEVLDHRPIEPKHCPPCHVSVELVGSCATLVTERILQGAPEILDRQTAALLHGTIILDCVNMDLKIGKATPKDSKYVEKLEALFPDLPKRNDIFDSLQKAKFDVSGLTTEQMLRKDQKTIYRQGVKVAISAIYMDLEAFLQRSNLLADLHAFCQAHSYDVLVAMTIFFNTHNEPVRQLAIFCPHVALQTTICEVLERSHSPPLKLTPASSTHPNLHAYLQGNTQVSRKKLLPLLQEALSAYFDSMKIPSGQPETADVSREQVDKELDRASNSLISGLSQDEEDPPLPPTPMNSLVDECPLDQGLPKLSAEAVFEKCSQISLSQSTTASLSKK [PRUNE] | 0.182 | -0.0758 | 50.3 | 49.6 | 0.764 | 0.775
MEEAELVKGRLQAITDKRKIQEEISQKRLKIEEDKLKHQHLKKKALREKWLLDGISSGKEQEEMKKQNQQDQHQIQVLEQSILRLEKEIQDLEKAELQISTKEEAILKKLKSIERTTEDIIRSVKVEREERAEESIEDIYANIPDLPKSYIPSRLRKEINEEKEDDEQNRKALYAMEIKVEKDLKTGESTVLSSIPLPSDDFKGTGIKVYDDGQKSVYAVSSNHSAAYNGTDGLAPVEVEELLRQASERNSKSPTEYHEPVYANPFYRPTTPQRETVTPGPNFQERIKIKTNGLGIGVNESIHNMGNGLSEERGNNFNHISPIPPVPHPRSVIQQAEEKLHTPQKRLMTPWEESNVMQDKDAPSPKPRLSPRETIFGKSEHQNSSPTCQEDEEDVRYNIVHSLPPDINDTEPVTMIFMGYQQAEDSEEDKKFLTGYDGIIHAELVVIDDEEEEDEGEAEKPSYHPIAPHSQVYQPAKPTPLPRKRSEASPHENTNHKSPHKNSISLKEQEESLGSPVHHSPFDAQTTGDGTEDPSLTALRMRMAKLGKKVI [PALMD] | 0.412 | 0.124 | 53.2 | 53.1 | -0.598 | 0.967
MEEEGLECPNSSSEKRYFPESLDSSDGDEEEVLACEDLELNPFDGLPYSSRYYKLLKEREDLPIWKEKYSFMENLLQNQIVIVSGDAKCGKSAQVPQWCAEYCLSIHYQHGGVICTQVHKQTVVQLALRVADEMDVNIGHEVGYVIPFENCCTNETILRYCTDDMLQREMMSNPFLGSYGVIILDDIHERSIATDVLLGLLKDVLLARPELKLIINSSPHLISKLNSYYGNVPVIEVKNKHPVEVVYLSEAQKDSFESILRLIFEIHHSGEKGDIVVFLACEQDIEKVCETVYQGSNLNPDLGELVVVPLYPKEKCSLFKPLDETEKRCQVYQRRVVLTTSSGEFLIWSNSVRFVIDVGVERRKVYNPRIRANSLVMQPISQSQAEIRKQILGSSSSGKFFCLYTEEFASKDMTPLKPAEMQEANLTSMVLFMKRIDIAGLGHCDFMNRPAPESLMQALEDLDYLAALDNDGNLSEFGIIMSEFPLDPQLSKSILASCEFDCVDEVLTIAAMVTAPNCFSHVPHGAEEAALTCWKTFLHPEGDHFTLISIYKAYQDTTLNSSSEYCVEKWCRDYFLNCSALRMADVIRAELLEIIKRIELPYAEPAFGSKENTLNIKKALLSGYFMQIARDVDGSGNYLMLTHKQVAQLHPLSGYSITKKMPEWVLFHKFSISENNYIRITSEISPELFMQLVPQYYFSNLPPSESKDILQQVVDHLSPVSTMNKEQQMCETCPETEQRCTLQ [DHX32] | -0.155 | -0.152 | 49.4 | 50 | -0.0722 | 0.258
MEEGGGGVRSLVPGGPVLLVLCGLLEASGGGRALPQLSDDIPFRVNWPGTEFSLPTTGVLYKEDNYVIMTTAHKEKYKCILPLVTSGDEEEEKDYKGPNPRELLEPLFKQSSCSYRIESYWTYEVCHGKHIRQYHEEKETGQKINIHEYYLGNMLAKNLLFEKEREAEEKEKSNEIPTKNIEGQMTPYYPVGMGNGTPCSLKQNRPRSSTVMYICHPESKHEILSVAEVTTCEYEVVILTPLLCSHPKYRFRASPVNDIFCQSLPGSPFKPLTLRQLEQQEEILRVPFRRNKEEDLQSTKEERFPAIHKSIAIGSQPVLTVGTTHISKLTDDQLIKEFLSGSYCFRGGVGWWKYEFCYGKHVHQYHEDKDSGKTSVVVGTWNQEEHIEWAKKNTARAYHLQDDGTQTVRMVSHFYGNGDICDITDKPRQVTVKLKCKESDSPHAVTVYMLEPHSCQYILGVESPVICKILDTADENGLLSLPN [ERLEC1] | 0.0171 | -0.0947 | 54.1 | 54 | 1.6 | 0.429
MEELDGEPTVTLIPGVNSKKNQMYFDWGPGEMLVCETSFNKKEKSEMVPSCPFIYIIRKDVDVYSQILRKLFNESHGIFLGLQRIDEELTGKSRKSQLVRVSKNYRSVIRACMEEMHQVAIAAKDPANGRQFSSQVSILSAMELIWNLCEILFIEVAPAGPLLLHLLDWVRLHVCEVDSLSADVLGSENPSKHDSFWNLVTILVLQGRLDEARQMLSKEADASPASAGICRIMGDLMRTMPILSPGNTQTLTELELKWQHWHEECERYLQDSTFATSPHLESLLKIMLGDEAALLEQKELLSNWYHFLVTRLLYSNPTVKPIDLHYYAQSSLDLFLGGESSPEPLDNILLAAFEFDIHQVIKECSIALSNWWFVAHLTDLLDHCKLLQSHNLYFGSNMREFLLLEYASGLFAHPSLWQLGVDYFDYCPELGRVSLELHIERIPLNTEQKALKVLRICEQRQMTEQVRSICKILAMKAVRNNRLGSALSWSIRAKDAAFATLVSDRFLRDYCERGCFSDLDLIDNLGPAMMLSDRLTFLGKYREFHRMYGEKRFADAASLLLSLMTSRIAPRSFWMTLLTDALPLLEQKQVIFSAEQTYELMRCLEDLTSRRPVHGESDTEQLQDDDIETTKVEMLRLSLARNLARAIIREGSLEGS [NUP85] | -0.6 | 0.246 | 52.3 | 50.8 | -2.34 | -4.7
MEESHFNSNPYFWPSIPTVSGQIENTMFINKMKDQLLPEKGCGLAPPHYPTLLTVPASVSLPSGISMDTESKSDQLTPHSQASVTQNITVVPVPSTGLMTAGVSCSQRWRREGSQSRGPGLVITSPSGSLVTTASSAQTFPISAPMIVSALPPGSQALQVVPDLSKKVASTLTEEGGGGGGGGGSVAPKPPRGRKKKRMLESGLPEMNDPYVLSPEDDDDHQKDGKTYRCRMCSLTFYSKSEMQIHSKSHTETKPHKCPHCSKTFANSSYLAQHIRIHSGAKPYSCNFCEKSFRQLSHLQQHTRIHSKMHTETIKPHKCPHCSKTFANTSYLAQHLRIHSGAKPYNCSYCQKAFRQLSHLQQHTRIHTGDRPYKCAHPGCEKAFTQLSNLQSHRRQHNKDKPFKCHNCHRAYTDAASLEVHLSTHTVKHAKVYTCTICSRAYTSETYLMKHMRKHNPPDLQQQVQAAAAAAAVAQAQAQAQAQAQAQAQAQAQAQASQASQQQQQQQQQQQQQQQQPPPHFQSPGAAPQGGGGGDSNPNPPPQCSFDLTPYKTAEHHKDICLTVTTSTIQVEHLASS [ZNF384] | -0.109 | 0.0582 | 51.6 | 52.4 | -0.69 | -1.1
MEEVRCPEHGTFCFLKTGVRDGPNKGKSFYVCRADTCSFVRATDIPVSHCLLHEDFVVELQGLLLPQDKKEYRLFFRCIRSKAEGKRWCGSIPWQDPDSKEHSVSNKSQHASETFHHSSNWLRNPFKVLDKNQEPALWKQLIKGEGEEKKADKKQREKGDQLFDQKKEQKPEMMEKDLSSGLVPKKKQSVVQEKKQEEGAEIQCEAETGGTHKRDFSEIKSQQCQGNELTRPSASSQEKSSGKSQDVQRESEPLREKVTQLLPQNVHSHNSISKPQKGGPLNKEYTNWEAKETKAKDGPSIQATQKSLPQGHFQERPETHSVPAPGGPAAQAAPAAPGLSLGEGREAATSSDDEEEDDVVFVSSKPGSPLLFDSTLDLETKENLQFPDRSVQRKVSPASGVSKKVEPSDPVARRVYLTTQLKQKKSTLASVNIQALPDKGQKLIKQIQELEEVLSGLTLSPEQGTNEKSNSQVPQQSHFTKTTTGPPHLVPPQPLPRRGTQPVGSLELKSACQVTAGGSSQCYRGHTNQDHVHAVWKITSEAIGQLHRSLESCPGETVVAEDPAGLKVPLLLHQKQALAWLLWRESQKPQGGILADDMGLGKTLTMIALILTQKNQEKKEEKEKSTALTWLSKDDSCDFTSHGTLIICPASLIHHWKNEVEKRVNSNKLRVYLYHGPNRDSRARVLSTYDIVITTYSLVAKEIPTNKQEAEIPGANLNVEGTSTPLLRIAWARIILDEAHNVKNPRVQTSIAVCKLQACARWAVTGTPIQNNLLDMYSLLKFLRCSPFDEFNLWRSQVDNGSKKGGERLSILTKSLLLRRTKDQLDSTGRPLVILPQRKFQLHHLKLSEDEETVYNVFFARSRSALQSYLKRHESRGNQSGRSPNNPFSRVALEFGSEEPRHSEAADSPRSSTVHILSQLLRLRQCCCHLSLLKSALDPMELKGEGLVLSLEEQLSALTLSELRDSEPSSTVSLNGTFFKMELFEGMRESTKISSLLAELEAIQRNSASQKSVIVSQWTNMLKVVALHLKKHGLTYATIDGSVNPKQRMDLVEAFNHSRGPQVMLISLLAGGVGLNLTGGNHLFLLDMHWNPSLEDQACDRIYRVGQQKDVVIHRFVCEGTVEEKILQLQEKKKDLAKQVLSGSGESVTKLTLADLRVLFGI [TTF2] | -0.107 | -0.0303 | 48.3 | 49.1 | 0.916 | 0.826
